{"source": "patent US20070105771A1", "about": "(Y S THERAPEUTICS, published 2007)", "binders": {"B1": {"name": "rhuMAb 412 (antibody, human IgG1, V domains shown)", "VH": "EVQLVQSGGGVKQPGETLRLTCTASGFSLTTYGVHWVRQAPGKGLEWVGVIWGDGRTDYDAAFMSRVTISKDTSKSTAYLQMNSLRAEDTAVYYCMRNRHDWFDYWGQGTTVTVSS", "VL": "EIEMTQSPSSLSVSAGERATISCSASQDIRNSLNWYQQKPGQAPRLLIYYSSNLHTGVPARFSGSGSGTDFTLTISRLEPEDVAIYYCQQSNKLPLTFGSGTKVEIKR", "notes": "X385 VH and X380 VL with human IgG1 and human kappa constant regions; also called X412"}, "B2": {"name": "mouse monoclonal antibody CM03 (14D10) (antibody, V domains shown)", "VH": "QVKLQESGPGLVQPSQTLSITCTVSGFSLTTYGVHWVRQSPGKGLEWLGVIWGGGRTDYDAAFISRLSISKDNSKSQVFFKMNSLQANDTAIYYCVRNRHDWFDYWGQGTTVTVSS", "VL": "DIQMTQSPSSLSASLGDRVTITCSASQGIRNSLNWYQQKPDGAVKLLIYYSSNLHSGVPSRFSGSGSGTDFSLTISNLEPEDIATYYCQQSIKLPFTFGSGTKLEIK", "notes": "Mouse monoclonal antibody; also called murine MAb CM03"}}, "key": {"[1]": {"biological_target": "human CD26 on the cell surface (human, UniProt P27487 1-766)", "sequence (P27487 whole entry)": "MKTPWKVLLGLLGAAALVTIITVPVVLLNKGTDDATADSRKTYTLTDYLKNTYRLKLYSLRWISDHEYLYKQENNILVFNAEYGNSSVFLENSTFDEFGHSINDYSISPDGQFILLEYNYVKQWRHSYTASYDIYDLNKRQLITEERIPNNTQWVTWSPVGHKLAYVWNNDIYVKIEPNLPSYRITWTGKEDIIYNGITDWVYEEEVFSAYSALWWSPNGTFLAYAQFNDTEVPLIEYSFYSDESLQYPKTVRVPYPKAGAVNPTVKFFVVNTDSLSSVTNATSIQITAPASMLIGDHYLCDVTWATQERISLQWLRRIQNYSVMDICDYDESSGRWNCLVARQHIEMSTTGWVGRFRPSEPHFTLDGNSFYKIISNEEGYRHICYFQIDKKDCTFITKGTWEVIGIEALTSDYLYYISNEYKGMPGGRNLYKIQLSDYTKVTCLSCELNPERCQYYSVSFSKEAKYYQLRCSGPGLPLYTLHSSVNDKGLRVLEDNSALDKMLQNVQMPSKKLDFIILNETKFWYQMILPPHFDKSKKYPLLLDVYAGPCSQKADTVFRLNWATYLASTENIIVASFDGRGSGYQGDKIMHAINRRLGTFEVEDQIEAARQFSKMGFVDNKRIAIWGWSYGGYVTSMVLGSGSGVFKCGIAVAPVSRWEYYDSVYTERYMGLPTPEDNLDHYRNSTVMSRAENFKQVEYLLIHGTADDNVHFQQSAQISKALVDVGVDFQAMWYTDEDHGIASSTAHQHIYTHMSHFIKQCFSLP", "experiment": "cell-based or functional assay"}, "[2]": {"biological_target": "T1, human CD26-derived 13 mer peptide 10 (human)", "T1 peptide": "HEYLYKQENNILV", "experiment": "peptide microarray", "procedure": "(§1) The overnight incubation was followed by three washings with each of PBS buffer pH 7.5 and water. The microarrays were then scanned using ArrayWorx-Microarray Scanner.\n(§2) The SPOT recognition software package ArrayPro was used for data analysis. The mean of signal intensities from 3 identical subarrays on each microarray image was used for data evaluation."}, "[3]": {"biological_target": "T2, human CD26-derived 13 mer peptide 112 (human)", "T2 peptide": "VVNTDSLSSVTNA", "experiment": "peptide microarray", "procedure": "as §1, §2"}, "[4]": {"biological_target": "T3, human CD26-derived 13 mer peptide 44 (human)", "T3 peptide": "IYDLNKRQLITEE", "experiment": "peptide microarray", "procedure": "as §1, §2"}, "[5]": {"biological_target": "T4, human CD26-derived 13 mer peptide 116 (human)", "T4 peptide": "SVTNATSIQITAP", "experiment": "peptide microarray", "procedure": "as §1, §2"}, "[6]": {"biological_target": "T5, human CD26-derived 13 mer peptide 60 (human)", "T5 peptide": "YVWNNDIYVKIEP", "experiment": "peptide microarray", "procedure": "as §1, §2"}, "[7]": {"biological_target": "T6, human CD26-derived 13 mer peptide 9 (human)", "T6 peptide": "SDHEYLYKQENNI", "experiment": "peptide microarray", "procedure": "as §1, §2"}, "[8]": {"biological_target": "T7, human CD26-derived 13 mer peptide 88 (human)", "T7 peptide": "FLAYAQFNDTEVP", "experiment": "peptide microarray", "procedure": "as §1, §2"}, "[9]": {"biological_target": "T8, human CD26-derived 13 mer peptide 46 (human)", "T8 construct": "also called NKRQL1TEERIPN", "T8 peptide": "NKRQLITEERIPN", "experiment": "peptide microarray", "procedure": "as §1, §2"}, "[10]": {"biological_target": "T9, human CD26-derived 13 mer peptide 87 (human)", "T9 peptide": "GTFLAYAQFNDTE", "experiment": "peptide microarray", "procedure": "as §1, §2"}, "[11]": {"biological_target": "T10, human CD26-derived 13 mer peptide 23 (human)", "T10 peptide": "NSTFDEFGHSIND", "experiment": "peptide microarray", "procedure": "as §1, §2"}, "[12]": {"biological_target": "T11, human CD26-derived 13 mer peptide 103 (human)", "T11 peptide": "VRVPYPKAGAVNP", "experiment": "peptide microarray", "procedure": "as §1, §2"}, "[13]": {"biological_target": "T12, human CD26-derived 13 mer peptide 25 (human)", "T12 peptide": "DEFGHSINDYSIS", "experiment": "peptide microarray", "procedure": "as §1, §2"}, "[14]": {"biological_target": "T13, human CD26-derived 13 mer peptide 96 (human)", "T13 peptide": "YSFYSDESLQYPK", "experiment": "peptide microarray", "procedure": "as §1, §2"}, "[15]": {"biological_target": "T14, human CD26-derived 13 mer peptide 26 (human)", "T14 peptide": "FGHSINDYSISPD", "experiment": "peptide microarray", "procedure": "as §1, §2"}, "[16]": {"biological_target": "T15, human CD26-derived 13 mer peptide 15 (human)", "T15 peptide": "ILVFNAEYGNSSV", "experiment": "peptide microarray", "procedure": "as §1, §2"}, "[17]": {"biological_target": "T16, human CD26-derived 13 mer peptide 24 (human)", "T16 peptide": "TFDEFGHSINDYS", "experiment": "peptide microarray", "procedure": "as §1, §2"}, "[18]": {"biological_target": "T17, human CD26-derived 13 mer peptide 28 (human)", "T17 peptide": "INDYSISPDGQFI", "experiment": "peptide microarray", "procedure": "as §1, §2"}, "[19]": {"biological_target": "T18, human CD26-derived 13 mer peptide 117 (human)", "T18 peptide": "TNATSIQITAPAS", "experiment": "peptide microarray", "procedure": "as §1, §2"}, "[20]": {"biological_target": "T19, human CD26-derived 13 mer peptide 62 (human)", "T19 peptide": "NDIYVKIEPNLPS", "experiment": "peptide microarray", "procedure": "as §1, §2"}, "[21]": {"biological_target": "T20, human CD26-derived 13 mer peptide 119 (human)", "T20 peptide": "SIQITAPASMLIG", "experiment": "peptide microarray", "procedure": "as §1, §2"}, "[22]": {"biological_target": "T21, human CD26-derived 13 mer peptide 67 (human)", "T21 construct": "also called LPSYRITWTGKED", "T21 peptide": "LPSYRITWTGKED", "experiment": "peptide microarray", "procedure": "as §1, §2"}, "[23]": {"biological_target": "T22, human CD26-derived 13 mer peptide 61 (human)", "T22 peptide": "WNNDIYVKIEPNL", "experiment": "peptide microarray", "procedure": "as §1, §2"}, "[24]": {"biological_target": "T23, human CD26-derived 13 mer peptide 21 (human)", "T23 peptide": "VFLENSTFDEFGH", "experiment": "peptide microarray", "procedure": "as §1, §2"}, "[25]": {"biological_target": "T24, human CD26-derived 13 mer peptide 90 (human)", "T24 peptide": "AQFNDTEVPLIEY", "experiment": "peptide microarray", "procedure": "as §1, §2"}, "[26]": {"biological_target": "T25, human CD26-derived 13 mer peptide 100 (human)", "T25 peptide": "LQYPKTVRVPYPK", "experiment": "peptide microarray", "procedure": "as §1, §2"}, "[27]": {"biological_target": "T26, human CD26-derived 13 mer peptide 122 (human)", "T26 peptide": "PASMLIGDHYLCD", "experiment": "peptide microarray", "procedure": "as §1, §2"}, "[28]": {"biological_target": "T27, human CD26-derived 13 mer peptide 18 (human)", "T27 peptide": "EYGNSSVFLENST", "experiment": "peptide microarray", "procedure": "as §1, §2"}, "[29]": {"biological_target": "T28, human CD26-derived 13 mer peptide 22 (human)", "T28 peptide": "LENSTFDEFGHSI", "experiment": "peptide microarray", "procedure": "as §1, §2"}, "[30]": {"biological_target": "T29, human CD26-derived 13 mer peptide 102 (human)", "T29 peptide": "KTVRVPYPKAGAV", "experiment": "peptide microarray", "procedure": "as §1, §2"}, "[31]": {"biological_target": "T30, human CD26-derived 13 mer peptide 104 (human)", "T30 peptide": "VPYPKAGAVNPTV", "experiment": "peptide microarray", "procedure": "as §1, §2"}, "[32]": {"biological_target": "T31, human CD26-derived 13 mer peptide 111 (human)", "T31 peptide": "FFVVNTDSLSSVT", "experiment": "peptide microarray", "procedure": "as §1, §2"}, "[33]": {"biological_target": "T32, human CD26-derived 13 mer peptide 45 (human)", "T32 peptide": "DLNKRQLITEERI", "experiment": "peptide microarray", "procedure": "as §1, §2"}, "[34]": {"biological_target": "T33, human CD26-derived 13 mer peptide 43 (human)", "T33 peptide": "YDIYDLNKRQLIT", "experiment": "peptide microarray", "procedure": "as §1, §2"}, "[35]": {"biological_target": "T34, human CD26-derived 13 mer peptide 110 (human)", "T34 peptide": "VKFFVVNTDSLSS", "experiment": "peptide microarray", "procedure": "as §1, §2"}, "[36]": {"biological_target": "T35, human CD26-derived 13 mer peptide 71 (human)", "T35 peptide": "TGKEDIIYNGITD", "experiment": "peptide microarray", "procedure": "as §1, §2"}, "[37]": {"biological_target": "T36, human CD26-derived 13 mer peptide 118 (human)", "T36 peptide": "ATSIQITAPASML", "experiment": "peptide microarray", "procedure": "as §1, §2"}, "[38]": {"biological_target": "T37, human CD26-derived 13 mer peptide 47 (human)", "T37 peptide": "RQLITEERIPNNT", "experiment": "peptide microarray", "procedure": "as §1, §2"}, "[39]": {"biological_target": "T38, Purified recombinant human CD26 (rhDipeptidyl peptidase IV), R&D Systems CAT #1180-SE (human, UniProt P27487 29-766)", "T38 construct": "Bought recombinant protein; also called hu-CD26; soluble human CD26", "T38 sequence (P27487 29-766 limits assumed)": "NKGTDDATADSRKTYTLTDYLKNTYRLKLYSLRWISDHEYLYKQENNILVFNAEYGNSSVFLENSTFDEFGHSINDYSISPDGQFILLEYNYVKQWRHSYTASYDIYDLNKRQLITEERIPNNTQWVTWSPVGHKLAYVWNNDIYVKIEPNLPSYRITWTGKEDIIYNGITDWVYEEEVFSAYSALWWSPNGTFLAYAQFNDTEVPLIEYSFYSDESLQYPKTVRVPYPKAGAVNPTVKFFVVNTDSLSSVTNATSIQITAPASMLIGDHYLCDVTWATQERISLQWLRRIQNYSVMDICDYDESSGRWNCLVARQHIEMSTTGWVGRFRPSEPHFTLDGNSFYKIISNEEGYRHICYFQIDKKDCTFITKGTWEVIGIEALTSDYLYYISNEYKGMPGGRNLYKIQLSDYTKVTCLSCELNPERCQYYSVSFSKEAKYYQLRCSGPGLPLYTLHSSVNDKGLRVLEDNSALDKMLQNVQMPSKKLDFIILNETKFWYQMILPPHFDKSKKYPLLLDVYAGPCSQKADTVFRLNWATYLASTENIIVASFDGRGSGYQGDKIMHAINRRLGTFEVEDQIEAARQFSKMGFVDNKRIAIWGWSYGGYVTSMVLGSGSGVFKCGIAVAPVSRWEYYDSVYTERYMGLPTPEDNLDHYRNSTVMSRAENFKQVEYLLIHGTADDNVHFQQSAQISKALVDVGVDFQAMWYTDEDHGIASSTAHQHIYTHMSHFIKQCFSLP", "experiment": "SPR (Biacore)"}}}
{"binder": "B1", "values": [{"measurement": "percent inhibition, MTT assay, Jurkat CD26+ cells, 0.05 ug/ml", "setting": "[1]", "result": 0.3, "unit": "%"}, {"measurement": "percent inhibition, MTT assay, Jurkat CD26+ cells, 0.25 ug/ml", "setting": "[1]", "result": 5.4, "unit": "%"}, {"measurement": "percent inhibition, MTT assay, Jurkat CD26+ cells, 5 ug/ml", "setting": "[1]", "result": 23.6, "unit": "%"}, {"measurement": "Mean Signal Value", "setting": "[2]", "result": 0}, {"measurement": "Mean Signal Value", "setting": "[3]", "result": 0}, {"measurement": "Mean Signal Value", "setting": "[4]", "result": 0}, {"measurement": "Mean Signal Value", "setting": "[5]", "result": 0}, {"measurement": "Mean Signal Value", "setting": "[6]", "result": 0}, {"measurement": "Mean Signal Value", "setting": "[7]", "result": 0}, {"measurement": "Mean Signal Value", "setting": "[8]", "result": 0}, {"measurement": "Mean Signal Value", "setting": "[9]", "result": 0}, {"measurement": "Mean Signal Value", "setting": "[10]", "result": 0}, {"measurement": "Mean Signal Value", "setting": "[11]", "result": 0}, {"measurement": "Mean Signal Value", "setting": "[12]", "result": 0}, {"measurement": "Mean Signal Value", "setting": "[13]", "result": 0}, {"measurement": "Mean Signal Value", "setting": "[14]", "result": 0}, {"measurement": "Mean Signal Value", "setting": "[15]", "result": 0}, {"measurement": "Mean Signal Value", "setting": "[16]", "result": 0}, {"measurement": "Mean Signal Value", "setting": "[17]", "result": 0}, {"measurement": "Mean Signal Value", "setting": "[18]", "result": 0}, {"measurement": "Mean Signal Value", "setting": "[19]", "result": 0}, {"measurement": "Mean Signal Value", "setting": "[20]", "result": 0}, {"measurement": "Mean Signal Value", "setting": "[21]", "result": 0}, {"measurement": "Mean Signal Value", "setting": "[22]", "result": 0}, {"measurement": "Mean Signal Value", "setting": "[23]", "result": 0}, {"measurement": "Mean Signal Value", "setting": "[24]", "result": 0}, {"measurement": "Mean Signal Value", "setting": "[25]", "result": 0}, {"measurement": "Mean Signal Value", "setting": "[26]", "result": 0}, {"measurement": "Mean Signal Value", "setting": "[27]", "result": 0}, {"measurement": "Mean Signal Value", "setting": "[28]", "result": 0}, {"measurement": "Mean Signal Value", "setting": "[29]", "result": 0}, {"measurement": "Mean Signal Value", "setting": "[30]", "result": 0}, {"measurement": "Mean Signal Value", "setting": "[31]", "result": 0}, {"measurement": "Mean Signal Value", "setting": "[32]", "result": 0}, {"measurement": "Mean Signal Value", "setting": "[33]", "result": 0}, {"measurement": "Mean Signal Value", "setting": "[34]", "result": 0}, {"measurement": "Mean Signal Value", "setting": "[35]", "result": 0}, {"measurement": "Mean Signal Value", "setting": "[36]", "result": 0}, {"measurement": "Mean Signal Value", "setting": "[37]", "result": 0}, {"measurement": "Mean Signal Value", "setting": "[38]", "result": 0}]}
{"binder": "B2", "values": [{"measurement": "Kd", "setting": "[39]", "result": 1.63, "unit": "nM"}]}
